Laboratory results: patent US11136633
Numbering of substitutions follows the chain as printed. In names and notes the source's numbering stands. Where two headings read alike, the source gives them in different places.

B1: H8-HC40, engineered cysteine anti-5T4 (HC S40C) H8 antibody conjugated to vc-seco-DUBA (antibody, human IgG1, kappa, V domains shown)
VH: QVQLVQSGAEVKKPGASVKVSCKASGYSFTGYYMHWVKQCPGQGLEWIGRINPNNGVTLYNQKFKDRVTMTRDTSISTAYMELSRLRSDDTAVYYCARSTMITNYVMDYWGQGTLVTVSS
VL: DIVMTQSPDSLAVSLGERATINCKASQSVSNDVAWYQQKPGQSPKLLISYTSSRYAGVPDRFSGSGSGTDFTLTISSLQAEDVAVYFCQQDYNSPPTFGGGTKLEIKR
modifications: vc-seco-DUBA linker drug on engineered Cys 40; average DAR 1.7
B2: H8-HC41, engineered cysteine anti-5T4 (VH P41C) H8 antibody conjugated to vc-seco-DUBA (antibody, human IgG1, kappa, V domains shown)
VH: B1 VH with C40S, P41C
VL: B1 VL
modifications: vc-seco-DUBA linker drug on engineered Cys 41; average DAR 1.7
B3: wild-type H8 antibody (anti-5T4) (antibody, human IgG1, kappa, V domains shown)
VH: B1 VH with C40S
VL: B1 VL
notes: Naked antibody, human IgG1 kappa
B4: ADC-HC41 (SYD1091), engineered cysteine anti-PSMA (VH S41C) antibody conjugated to vc-seco-DUBA (antibody, human IgG1, kappa, V domains shown)
VH: EVQLVQSGAEVKKPGASVKISCKTSGYTFTEYTIHWVKQACGKGLEWIGNINPNNGGTTYNQKFEDRATLTVDKSTSTAYMELSSLRSEDTAVYYCAAGWNFDYWGQGTTVTVSS
VL: DIVMTQSPSSLSASVGDRVTITCKASQDVGTAVDWYQQKPGKAPKLLIYWASTRHTGVPDRFTGSGSGTDFTLTISSLQPEDFADYFCQQYNSYPLTFGGGTKLEIKR
modifications: vc-seco-DUBA linker drug on engineered Cys 41 (Kabat numbering); average DAR 1.7
B5: ADC-HC41 (vc-MMAE), anti-PSMA antibody (HC S41C) conjugated to vc-MMAE (antibody, human IgG1, kappa, V domains shown)
VH: B4 VH
VL: B4 VL
modifications: vc-MMAE linker drug on engineered Cys 41 (Kabat numbering); average DAR 1.8

How the values were obtained:
[1] = molecular target: T1, 5T4 (on 5T4-expressing MDA-MB-468 cells) (human, UniProt Q13641 32-420); assay: cell-based or functional assay
T1 sequence (looked up): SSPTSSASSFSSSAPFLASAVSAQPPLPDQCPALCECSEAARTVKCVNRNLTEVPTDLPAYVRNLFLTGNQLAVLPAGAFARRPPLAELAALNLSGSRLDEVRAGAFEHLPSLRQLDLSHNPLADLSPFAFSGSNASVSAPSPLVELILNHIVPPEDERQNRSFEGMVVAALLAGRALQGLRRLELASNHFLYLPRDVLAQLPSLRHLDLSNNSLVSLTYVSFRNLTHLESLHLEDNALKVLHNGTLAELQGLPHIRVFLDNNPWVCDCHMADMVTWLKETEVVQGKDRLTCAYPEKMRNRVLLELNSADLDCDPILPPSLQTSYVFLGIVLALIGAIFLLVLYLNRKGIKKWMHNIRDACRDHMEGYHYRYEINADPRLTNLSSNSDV

[2] = molecular target: T1, 5T4 (on 5T4-expressing MDA-MB-468 cells); assay: cellular binding on 5T4-expressing MDA-MB-468 cells
[3] = molecular target: T2, PSMA (on PSMA-expressing LNCaP-C4.2 cells) (human, UniProt Q04609 1-750); assay: cell-based or functional assay
T2 sequence (Q04609 whole entry): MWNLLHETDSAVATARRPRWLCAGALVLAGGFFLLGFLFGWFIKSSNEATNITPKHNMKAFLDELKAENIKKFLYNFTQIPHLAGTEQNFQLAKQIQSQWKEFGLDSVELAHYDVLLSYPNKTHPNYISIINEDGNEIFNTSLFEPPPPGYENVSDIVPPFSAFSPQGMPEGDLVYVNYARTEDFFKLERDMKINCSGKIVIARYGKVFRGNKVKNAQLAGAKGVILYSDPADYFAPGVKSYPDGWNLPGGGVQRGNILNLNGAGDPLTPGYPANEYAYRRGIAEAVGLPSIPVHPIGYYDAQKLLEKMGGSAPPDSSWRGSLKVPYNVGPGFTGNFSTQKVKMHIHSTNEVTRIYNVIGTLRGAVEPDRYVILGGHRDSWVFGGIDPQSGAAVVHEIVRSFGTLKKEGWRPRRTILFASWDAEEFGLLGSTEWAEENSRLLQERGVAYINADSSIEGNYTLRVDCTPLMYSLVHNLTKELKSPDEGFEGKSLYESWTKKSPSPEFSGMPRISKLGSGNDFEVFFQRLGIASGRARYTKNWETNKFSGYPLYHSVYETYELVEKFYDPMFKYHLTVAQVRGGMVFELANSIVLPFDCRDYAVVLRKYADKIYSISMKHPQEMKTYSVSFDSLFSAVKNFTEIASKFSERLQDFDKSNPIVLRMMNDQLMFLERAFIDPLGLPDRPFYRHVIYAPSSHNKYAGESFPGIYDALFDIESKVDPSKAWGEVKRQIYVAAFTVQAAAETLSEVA

[4] = molecular target: T2, PSMA (on PSMA-expressing LNCaP-C4.2 …); assay: cell-based or functional assay; remark: listed apart in the source

Binder	% efficacy, in vitro cytotoxicity on MDA-MB-468 at ~100 nM [1] [%]	IC50, in vitro cytotoxicity on 5T4-positive cell line MDA-MB-468 [1] [pM]	also measured
B1	88	70	–
B2	88	70	–
B3	–	–	binding result [2]: binds
B4	–	–	IC50, in vitro cytotoxicity on PSMA-positive cell line LNCaP-C4.2 [3]: 250 pM
B5	–	–	IC50, in vitro cytotoxicity on PSMA-positive cell line LNCaP-C4.2 [4]: 390 pM
